Reference: article PMC4867596

Columns and labels:
[1] = target: peroxisomal MAVS of Mefs MAVS-Pex cells (UniProt Q7Z434); assay: co-IP; Mefs MAVS-Pex cells transfected with vMIA-myc or myc-Miro1 for 24 h; precipitated with an antibody against MAVS and Dynabeads Protein G; blot for MAVS and myc; controls: non-transfected cells, Mefs MAVS-KO cells with vMIA-myc
Pex19-YFP [2] = target: Pex19-YFP (UniProt P40855); assay: co-IP; HepG2 cells co-transfected with Pex19-YFP and vMIA-myc for 24 h; Pex19-YFP precipitated with GFP-Trap_M beads, 2 h at 4 °C; lysis in 10 mM Tris-HCl pH 7.5, 150 mM NaCl, 0.5 mM EDTA, 0.5% NP-40; blot for myc, Pex19 and GFP; control: cells with GFP and vMIA-myc
Pex19-YFP [3] = target: Pex19-YFP (UniProt P40855); assay: co-IP; HFF cells transfected with vMIA-myc and Pex19-YFP for 24 h; precipitated with GFP antibody overnight at 4 °C and Dynabeads Protein G; blot for myc and GFP; control: cells with vMIA-myc alone
[4] = target: vMIA-myc (HCMV mitochondria-localized inhibitor of apoptosis, myc-tagged) (human cytomegalovirus); assay: co-IP; HFF cells transfected with vMIA-myc for 24 h; precipitated with myc antibody (2 h, 4 °C) and Protein G magnetic beads; blot for myc and endogenous Pex19; control: non-transfected cells
vMIA-myc (HCMV mitochondria-localized inhibitor of apoptosis, myc-tagged) (human cytomegalovirus), sequence (P16778 23-487): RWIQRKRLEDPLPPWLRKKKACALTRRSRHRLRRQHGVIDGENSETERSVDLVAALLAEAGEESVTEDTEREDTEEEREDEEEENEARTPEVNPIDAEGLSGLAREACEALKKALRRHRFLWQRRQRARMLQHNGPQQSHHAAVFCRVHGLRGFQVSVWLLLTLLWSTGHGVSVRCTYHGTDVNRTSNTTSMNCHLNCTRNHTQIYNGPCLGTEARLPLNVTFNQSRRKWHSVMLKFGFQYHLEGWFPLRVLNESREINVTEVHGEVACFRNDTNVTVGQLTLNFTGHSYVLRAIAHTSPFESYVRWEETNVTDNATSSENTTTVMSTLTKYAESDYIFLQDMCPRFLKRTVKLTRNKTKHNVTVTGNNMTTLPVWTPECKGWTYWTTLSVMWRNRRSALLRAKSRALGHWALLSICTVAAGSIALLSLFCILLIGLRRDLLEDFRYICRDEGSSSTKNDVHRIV

UniProt Q7Z434, sequence (Q7Z434 whole entry): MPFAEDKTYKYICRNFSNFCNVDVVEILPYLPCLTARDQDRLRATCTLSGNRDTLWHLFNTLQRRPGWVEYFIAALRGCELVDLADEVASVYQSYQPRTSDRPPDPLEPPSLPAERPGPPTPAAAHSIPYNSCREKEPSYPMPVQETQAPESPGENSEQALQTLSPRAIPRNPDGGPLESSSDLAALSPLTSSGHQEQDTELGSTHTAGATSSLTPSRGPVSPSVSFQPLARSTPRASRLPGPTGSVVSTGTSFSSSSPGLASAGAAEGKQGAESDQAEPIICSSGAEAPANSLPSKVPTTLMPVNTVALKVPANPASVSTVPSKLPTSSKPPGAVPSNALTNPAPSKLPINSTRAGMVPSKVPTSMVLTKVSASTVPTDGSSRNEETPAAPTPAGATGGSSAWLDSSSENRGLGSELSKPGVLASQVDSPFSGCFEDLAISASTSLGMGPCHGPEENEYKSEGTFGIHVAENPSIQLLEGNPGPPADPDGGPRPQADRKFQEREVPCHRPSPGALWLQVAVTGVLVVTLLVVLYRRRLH

vMIA-myc (HCMV mitochondria-localized inhibitor of apoptosis, myc-tagged) (natural protein)
fold increase of the IP band over the control [1]: 18 fold | fold increase of the IP band over the control (Pex19-YFP [2]): 7 fold | fold increase of the IP band over the control (Pex19-YFP [3]): 5 fold

B1: endogenous Pex19 (natural protein)
chain: MAAAEEGCSVGAEADRELEELLESALDDFDKAKPSPAPPSTTTAPDASGPQKRSPGDTAKDALFASQEKFFQELFDSELASQATAEFEKAMKELAEEEPHLVEQFQKLSEAAGRVGSDMTSQQEFTSCLKETLSGLAKNATDLQNSSMSEEELTKAMEGLGMDEGDGEGNILPIMQSIMQNLLSKDVLYPSLKEITEKYPEWLQSHRESLPPEQFEKYQEQHSVMCKICEQFEAETPTDSETTQKARFEMVLDLMQQLQDLGHPPKELAGEMPPGLNFDLDALNLSGPPGASGEQCLIM
fold increase of the IP band over the control [4]: 3 fold
